Measurements taken from paper PMC5503505 (Nature structural & molecular biology, 2017).

T1: Cdt1 (S. cerevisiae, UniProt P47112 1-604)
T1 sequence: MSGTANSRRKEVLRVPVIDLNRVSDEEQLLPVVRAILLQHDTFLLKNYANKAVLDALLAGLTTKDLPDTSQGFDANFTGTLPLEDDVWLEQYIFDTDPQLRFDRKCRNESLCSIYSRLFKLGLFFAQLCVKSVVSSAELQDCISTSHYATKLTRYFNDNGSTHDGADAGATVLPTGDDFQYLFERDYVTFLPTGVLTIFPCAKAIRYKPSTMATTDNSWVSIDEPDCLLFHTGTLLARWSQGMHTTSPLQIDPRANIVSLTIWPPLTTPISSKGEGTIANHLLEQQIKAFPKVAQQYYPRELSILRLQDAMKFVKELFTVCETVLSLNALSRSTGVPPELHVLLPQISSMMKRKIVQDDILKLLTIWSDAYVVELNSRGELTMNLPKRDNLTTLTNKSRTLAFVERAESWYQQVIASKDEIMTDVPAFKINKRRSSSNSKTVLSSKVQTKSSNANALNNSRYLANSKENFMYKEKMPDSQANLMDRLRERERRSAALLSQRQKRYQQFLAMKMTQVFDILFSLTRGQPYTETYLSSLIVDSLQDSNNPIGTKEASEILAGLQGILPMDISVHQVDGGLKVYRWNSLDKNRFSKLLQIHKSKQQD

T2: Mcm5 (S. cerevisiae, UniProt P29496 1-775)
T2 sequence: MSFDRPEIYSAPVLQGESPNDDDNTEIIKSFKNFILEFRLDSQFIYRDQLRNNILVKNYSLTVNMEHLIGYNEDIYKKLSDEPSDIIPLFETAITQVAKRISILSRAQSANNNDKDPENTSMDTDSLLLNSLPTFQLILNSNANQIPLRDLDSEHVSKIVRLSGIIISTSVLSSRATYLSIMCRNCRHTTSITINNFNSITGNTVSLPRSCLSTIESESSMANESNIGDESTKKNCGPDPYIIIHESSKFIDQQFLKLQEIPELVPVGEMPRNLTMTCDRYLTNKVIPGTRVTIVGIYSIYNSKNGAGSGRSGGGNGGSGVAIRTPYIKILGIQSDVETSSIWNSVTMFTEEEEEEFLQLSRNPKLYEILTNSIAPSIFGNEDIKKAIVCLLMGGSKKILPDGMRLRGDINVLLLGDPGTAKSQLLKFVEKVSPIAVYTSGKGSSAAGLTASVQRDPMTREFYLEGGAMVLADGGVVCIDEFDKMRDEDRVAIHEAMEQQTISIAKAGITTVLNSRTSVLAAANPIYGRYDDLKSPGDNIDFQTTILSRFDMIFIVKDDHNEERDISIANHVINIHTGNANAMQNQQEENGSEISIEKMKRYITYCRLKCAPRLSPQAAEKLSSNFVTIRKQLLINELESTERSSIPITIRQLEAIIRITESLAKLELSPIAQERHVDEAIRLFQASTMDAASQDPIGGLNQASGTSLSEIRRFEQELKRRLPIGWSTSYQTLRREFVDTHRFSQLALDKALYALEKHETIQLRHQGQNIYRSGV

T3: Mcm7 (S. cerevisiae, UniProt P38132 1-845)
T3 sequence: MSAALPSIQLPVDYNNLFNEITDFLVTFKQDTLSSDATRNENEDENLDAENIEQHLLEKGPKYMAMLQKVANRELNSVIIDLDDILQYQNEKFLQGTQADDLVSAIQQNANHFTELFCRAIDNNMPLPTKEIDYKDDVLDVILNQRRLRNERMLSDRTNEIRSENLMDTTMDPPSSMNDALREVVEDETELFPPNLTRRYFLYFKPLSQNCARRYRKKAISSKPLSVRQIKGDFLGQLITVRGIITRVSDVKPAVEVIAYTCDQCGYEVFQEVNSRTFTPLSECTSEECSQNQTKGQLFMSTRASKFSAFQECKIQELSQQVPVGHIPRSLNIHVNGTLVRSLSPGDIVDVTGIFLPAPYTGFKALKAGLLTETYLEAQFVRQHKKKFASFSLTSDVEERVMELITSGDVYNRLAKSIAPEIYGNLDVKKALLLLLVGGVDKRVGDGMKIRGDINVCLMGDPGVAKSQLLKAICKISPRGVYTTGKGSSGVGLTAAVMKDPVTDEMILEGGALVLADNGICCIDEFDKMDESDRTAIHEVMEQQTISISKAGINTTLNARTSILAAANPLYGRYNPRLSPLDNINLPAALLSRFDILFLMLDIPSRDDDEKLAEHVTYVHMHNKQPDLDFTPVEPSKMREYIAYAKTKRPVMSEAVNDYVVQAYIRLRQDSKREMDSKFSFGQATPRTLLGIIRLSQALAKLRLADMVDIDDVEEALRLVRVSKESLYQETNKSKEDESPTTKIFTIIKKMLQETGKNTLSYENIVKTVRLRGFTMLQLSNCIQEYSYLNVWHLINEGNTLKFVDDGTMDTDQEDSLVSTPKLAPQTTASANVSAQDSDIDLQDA

T4: Orc1 (S. cerevisiae, UniProt P54784 1-914)
T4 sequence: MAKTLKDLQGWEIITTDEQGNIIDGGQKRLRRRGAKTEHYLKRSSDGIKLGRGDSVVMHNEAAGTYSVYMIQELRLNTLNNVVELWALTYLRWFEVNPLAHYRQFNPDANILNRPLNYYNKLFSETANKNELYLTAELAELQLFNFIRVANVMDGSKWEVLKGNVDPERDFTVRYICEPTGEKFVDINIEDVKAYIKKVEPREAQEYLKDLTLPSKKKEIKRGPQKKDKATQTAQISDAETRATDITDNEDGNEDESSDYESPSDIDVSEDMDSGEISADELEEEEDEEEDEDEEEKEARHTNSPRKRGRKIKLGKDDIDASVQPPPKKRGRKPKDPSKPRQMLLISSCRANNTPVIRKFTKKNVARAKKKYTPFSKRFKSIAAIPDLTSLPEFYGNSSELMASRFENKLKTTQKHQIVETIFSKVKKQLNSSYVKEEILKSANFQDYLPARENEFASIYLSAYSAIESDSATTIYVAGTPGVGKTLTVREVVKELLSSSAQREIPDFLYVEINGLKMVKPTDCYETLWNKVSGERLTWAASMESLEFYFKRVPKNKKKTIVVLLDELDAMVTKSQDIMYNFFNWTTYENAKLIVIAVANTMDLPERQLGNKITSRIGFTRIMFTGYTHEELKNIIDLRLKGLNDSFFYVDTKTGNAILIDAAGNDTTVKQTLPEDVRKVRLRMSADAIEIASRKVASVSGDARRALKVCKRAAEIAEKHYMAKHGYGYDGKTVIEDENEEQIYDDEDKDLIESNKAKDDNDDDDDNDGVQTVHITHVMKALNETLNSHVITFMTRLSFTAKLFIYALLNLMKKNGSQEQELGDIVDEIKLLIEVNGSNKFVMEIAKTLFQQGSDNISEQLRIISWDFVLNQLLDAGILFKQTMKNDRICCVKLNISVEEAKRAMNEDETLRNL

B1: Orc6 (natural protein)
chain: MSMQQVQHCVAEVLRLDPQEKPDWSSGYLKKLTNATSILYNTSLNKVMLKQDEEVARCHICAYIASQKMNEKHMPDLCYYIDSIPLEPKKAKHLMNLFRQSLSNSSPMKQFAWTPSPKKNKRSPVKNGGRFTSSDPKELRNQLFGTPTKVRKSQNNDSFVIPELPPMQTNESPSITRRKLAFEEDEDEDEEEPGNDGLSLKSHSNKSITGTRNVDSDEYENHESDPTSEEEPLGVQESRSGRTKQNKAVGKPQSELKTAKALRKRGRIPNSLLVKKYCKMTTEEIIRLCNDFELPREVAYKIVDEYNINASRLVCPWQLVCGLVLNCTFIVFNERRRKDPRIDHFIVSKMCSLMLTSKVDDVIECVKLVKELIIGEKWFRDLQIRYDDFDGIRYDEIIFRKLGSMLQTTNILVTDDQYNIWKKRIEMDLALTEPL
B2: Orc2 (natural protein)
chain: MLNGEDFVEHNDILSSPAKSRNVTPKRVDPHGERQLRRIHSSKKNLLERISLVGNERKNTSPDPALKPKTPSKAPRKRGRPRKIQEELTDRIKKDEKDTISSKKKRKLDKDTSGNVNEESKTSNNKQVMEKTGIKEKREREKIQVATTTYEDNVTPQTDDNFVSNSPEPPEPATPSKKSLTTNHDFTSPLKQIIMNNLKEYKDSTSPGKLTLSRNFTPTPVPKNKKLYQTSETKSASSFLDTFEGYFDQRKIVRTNAKSRHTMSMAPDVTREEFSLVSNFFNENFQKRPRQKLFEIQKKMFPQYWFELTQGFSLLFYGVGSKRNFLEEFAIDYLSPKIAYSQLAYENELQQNKPVNSIPCLILNGYNPSCNYRDVFKEITDLLVPAELTRSETKYWGNHVILQIQKMIDFYKNQPLDIKLILVVHNLDGPSIRKNTFQTMLSFLSVIRQIAIVASTDHIYAPLLWDNMKAQNYNFVFHDISNFEPSTVESTFQDVMKMGKSDTSSGAEGAKYVLQSLTVNSKKMYKLLIETQMQNMGNLSANTGPKRGTQRTGVELKLFNHLCAADFIASNEIALRSMLREFIEHKMANITKNNSGMEIIWVPYTYAELEKLLKTVLNTL
B3: Cdc6 (natural protein)
chain: MSAIPITPTKRIRRNLFDDAPATPPRPLKRKKLQFTDVTPESSPEKLQFGSQSIFLRTKALLQKSSELVNLNSSDGALPARTAEYEQVMNFLAKAISEHRSDSLYITGPPGTGKTAQLDMIIRQKFQSLPLSLSTPRSKDVLRHTNPNLQNLSWFELPDGRLESVAVTSINCISLGEPSSIFQKIFDSFQDLNGPTLQIKNMQHLQKFLEPYHKKTTFVVVLDEMDRLLHANTSETQSVRTILELFLLAKLPTVSFVLIGMANSLDMKDRFLSRLNLDRGLLPQTIVFQPYTAEQMYEIVIQKMSSLPTIIFQPMAIKFAAKKCAGNTGDLRKLFDVLRGSIEIYELEKRFLLSPTRGSLNSAQVPLTPTTSPVKKSYPEPQGKIGLNYIAKVFSKFVNNNSTRTRIAKLNIQQKLILCTIIQSLKLNSDATIDESFDHYIKAITKTDTLAPLQRNEFLEICTILETCGLVSIKKTKCKGKTKRFVDKIDVDLDMREFYDEMTKISILKPFLH

What was measured:
Cdt1 = molecular target: T1, Cdt1; assay: cross-linking
Orc2 = molecular target: B2; assay: cross-linking
Mcm5 = molecular target: T2, Mcm5; assay: cross-linking
Mcm3 = Mcm3 (S. cerevisiae, UniProt P24279 1-971); assay: cryo-EM structure
Mcm7 = molecular target: T3, Mcm7; assay: cryo-EM structure
Orc1 = molecular target: T4, Orc1; assay: cryo-EM structure

Sequence of Mcm3 (P24279 whole entry): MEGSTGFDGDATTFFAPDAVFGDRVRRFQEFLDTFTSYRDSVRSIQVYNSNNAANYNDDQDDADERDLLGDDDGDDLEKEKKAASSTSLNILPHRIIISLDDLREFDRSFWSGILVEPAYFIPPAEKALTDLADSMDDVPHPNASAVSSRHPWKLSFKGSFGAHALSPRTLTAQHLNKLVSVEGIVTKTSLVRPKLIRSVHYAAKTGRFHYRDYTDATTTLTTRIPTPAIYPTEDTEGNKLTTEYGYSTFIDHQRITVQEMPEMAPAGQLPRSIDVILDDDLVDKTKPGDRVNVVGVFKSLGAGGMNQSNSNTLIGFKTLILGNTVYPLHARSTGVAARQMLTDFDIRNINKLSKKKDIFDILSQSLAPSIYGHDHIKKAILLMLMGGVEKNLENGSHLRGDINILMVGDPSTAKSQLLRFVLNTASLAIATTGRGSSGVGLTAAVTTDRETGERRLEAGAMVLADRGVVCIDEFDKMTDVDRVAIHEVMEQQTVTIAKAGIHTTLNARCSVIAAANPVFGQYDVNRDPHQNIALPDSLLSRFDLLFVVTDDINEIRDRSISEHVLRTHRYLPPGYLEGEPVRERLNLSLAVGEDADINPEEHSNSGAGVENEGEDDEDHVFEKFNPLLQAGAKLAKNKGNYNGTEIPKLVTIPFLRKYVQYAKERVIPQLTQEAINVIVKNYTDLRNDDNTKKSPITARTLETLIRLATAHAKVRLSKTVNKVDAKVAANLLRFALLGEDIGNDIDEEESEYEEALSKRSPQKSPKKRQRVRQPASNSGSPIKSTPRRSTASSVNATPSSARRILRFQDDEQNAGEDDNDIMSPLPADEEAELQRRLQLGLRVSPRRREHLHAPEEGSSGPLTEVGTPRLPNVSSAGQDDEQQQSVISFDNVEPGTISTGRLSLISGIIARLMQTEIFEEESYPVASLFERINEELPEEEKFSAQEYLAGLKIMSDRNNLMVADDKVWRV

B1: binds (Cdt1); binds (Orc2).

B2: binds (Mcm5); binds (Mcm3).

B3: binds (Mcm7); binds (Orc1).
